According to the supplement of paper PMC10065799, “High-throughput profiling of sequence recognition by tyrosine kinases and SH2 domains using bacterial peptide display” (eLife, 2023):

System: Fer (mouse)
Experiment: phosphorylation enrichment, bacterial display (enrichment ratio); higher = better substrate or ligand; peptides without Tyr show the background
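Further: 11-residue human phosphosite peptides and single-mutation variants displayed on the E. coli surface, counted by deep sequencing, each peptide's frequency after selection divided by its frequency in the unselected input library; frequency after pTyr selection over input frequency; kinase dosed for 20-30% of maximal phosphorylation in three min.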

Compared with AEQDCYHGAIP [FER_Y461_W460C], ENQEIYQKAFD [KPNA1_Y493] is higher in phosphorylation enrichment: 0.456 for the first, 0.686 for the second.

Compared with QGIFGYHHHMQ [UFSP2_Y287_Y290H_YF], RSFPSYFTSHV [NEFL_Y442_YF] is lower in phosphorylation enrichment: 0.779 for the first, 0.525 for the second.

Compared with CEDMEYLESKQ [BTK_Y511_A508D], LSERGYSFVTT [ACTA2_Y200_T196S] is higher in phosphorylation enrichment: 0.652 for the first, 1.06 for the second.

First: QHVPDYRQNVY [PCDHGA1_Y890]
Second: ISRDVYSTDYY [NTRK2_Y702_M697I]
The phosphorylation enrichment of the first is lower: 0.517 for the first, 0.703 for the second.

Going from IRSGIYFKPES [L2HGDH_Y102_H98R_YF] to VHNLDYYKETT [FGFR3_Y647_K650E], the phosphorylation enrichment falls from 0.467 to 0.439.

Going from EQMASYFGHSV [ITGA2B_Y319] to DGDTRYSTFSE [TKTL1_Y318], the phosphorylation enrichment falls from 0.584 to 0.481.

First: VMICAYLLHRG [PTEN_Y138]
Second: TGSFTCEAVEL [MTMR14_Y462_Y462C]
The phosphorylation enrichment of the first is higher: 0.688 for the first, 0.619 for the second.

Going from NPETCYQRLKK [TK2_Y190] to KILTHYKQPHT [KMT2D_Y5349_R5351Q], the phosphorylation enrichment falls from 0.432 to 0.384.

System: AncSZ
Experiment: as above

Going from AEQDCYHGAIP [FER_Y461_W460C] to ENQEIYQKAFD [KPNA1_Y493], the phosphorylation enrichment rises from 0.864 to 1.43.

First: QGIFGYHHHMQ [UFSP2_Y287_Y290H_YF]
Second: RSFPSYFTSHV [NEFL_Y442_YF]
The phosphorylation enrichment of the first is higher: 0.941 for the first, 0.869 for the second.

Going from CEDMEYLESKQ [BTK_Y511_A508D] to LSERGYSFVTT [ACTA2_Y200_T196S], the phosphorylation enrichment falls from 1.3 to 1.29.

Going from QHVPDYRQNVY [PCDHGA1_Y890] to ISRDVYSTDYY [NTRK2_Y702_M697I], the phosphorylation enrichment rises from 0.742 to 1.83.

Compared with IRSGIYFKPES [L2HGDH_Y102_H98R_YF], VHNLDYYKETT [FGFR3_Y647_K650E] is lower in phosphorylation enrichment: 0.913 for the first, 0.903 for the second.

First: EQMASYFGHSV [ITGA2B_Y319]
Second: DGDTRYSTFSE [TKTL1_Y318]
The phosphorylation enrichment of the first is lower: 0.662 for the first, 0.837 for the second.

Compared with VMICAYLLHRG [PTEN_Y138], TGSFTCEAVEL [MTMR14_Y462_Y462C] is lower in phosphorylation enrichment: 1.21 for the first, 1.19 for the second.

Compared with NPETCYQRLKK [TK2_Y190], KILTHYKQPHT [KMT2D_Y5349_R5351Q] is lower in phosphorylation enrichment: 1.03 for the first, 0.763 for the second.

System: c-Src
Experiment: as above

Going from AEQDCYHGAIP [FER_Y461_W460C] to ENQEIYQKAFD [KPNA1_Y493], the phosphorylation enrichment rises from 0.599 to 1.45.

Going from QGIFGYHHHMQ [UFSP2_Y287_Y290H_YF] to RSFPSYFTSHV [NEFL_Y442_YF], the phosphorylation enrichment falls from 0.498 to 0.481.

First: CEDMEYLESKQ [BTK_Y511_A508D]
Second: LSERGYSFVTT [ACTA2_Y200_T196S]
The phosphorylation enrichment of the first is lower: 0.53 for the first, 0.693 for the second.

Going from QHVPDYRQNVY [PCDHGA1_Y890] to ISRDVYSTDYY [NTRK2_Y702_M697I], the phosphorylation enrichment rises from 0.723 to 4.67.

Going from IRSGIYFKPES [L2HGDH_Y102_H98R_YF] to VHNLDYYKETT [FGFR3_Y647_K650E], the phosphorylation enrichment falls from 0.673 to 0.367.

First: EQMASYFGHSV [ITGA2B_Y319]
Second: DGDTRYSTFSE [TKTL1_Y318]
The phosphorylation enrichment of the first is higher: 0.553 for the first, 0.5 for the second.

First: VMICAYLLHRG [PTEN_Y138]
Second: TGSFTCEAVEL [MTMR14_Y462_Y462C]
The phosphorylation enrichment of the first is higher: 0.644 for the first, 0.483 for the second.

Going from NPETCYQRLKK [TK2_Y190] to KILTHYKQPHT [KMT2D_Y5349_R5351Q], the phosphorylation enrichment falls from 0.483 to 0.416.

Target: EPHB2 (UniProt P29323)
Sequence (P29323 whole entry, looked up): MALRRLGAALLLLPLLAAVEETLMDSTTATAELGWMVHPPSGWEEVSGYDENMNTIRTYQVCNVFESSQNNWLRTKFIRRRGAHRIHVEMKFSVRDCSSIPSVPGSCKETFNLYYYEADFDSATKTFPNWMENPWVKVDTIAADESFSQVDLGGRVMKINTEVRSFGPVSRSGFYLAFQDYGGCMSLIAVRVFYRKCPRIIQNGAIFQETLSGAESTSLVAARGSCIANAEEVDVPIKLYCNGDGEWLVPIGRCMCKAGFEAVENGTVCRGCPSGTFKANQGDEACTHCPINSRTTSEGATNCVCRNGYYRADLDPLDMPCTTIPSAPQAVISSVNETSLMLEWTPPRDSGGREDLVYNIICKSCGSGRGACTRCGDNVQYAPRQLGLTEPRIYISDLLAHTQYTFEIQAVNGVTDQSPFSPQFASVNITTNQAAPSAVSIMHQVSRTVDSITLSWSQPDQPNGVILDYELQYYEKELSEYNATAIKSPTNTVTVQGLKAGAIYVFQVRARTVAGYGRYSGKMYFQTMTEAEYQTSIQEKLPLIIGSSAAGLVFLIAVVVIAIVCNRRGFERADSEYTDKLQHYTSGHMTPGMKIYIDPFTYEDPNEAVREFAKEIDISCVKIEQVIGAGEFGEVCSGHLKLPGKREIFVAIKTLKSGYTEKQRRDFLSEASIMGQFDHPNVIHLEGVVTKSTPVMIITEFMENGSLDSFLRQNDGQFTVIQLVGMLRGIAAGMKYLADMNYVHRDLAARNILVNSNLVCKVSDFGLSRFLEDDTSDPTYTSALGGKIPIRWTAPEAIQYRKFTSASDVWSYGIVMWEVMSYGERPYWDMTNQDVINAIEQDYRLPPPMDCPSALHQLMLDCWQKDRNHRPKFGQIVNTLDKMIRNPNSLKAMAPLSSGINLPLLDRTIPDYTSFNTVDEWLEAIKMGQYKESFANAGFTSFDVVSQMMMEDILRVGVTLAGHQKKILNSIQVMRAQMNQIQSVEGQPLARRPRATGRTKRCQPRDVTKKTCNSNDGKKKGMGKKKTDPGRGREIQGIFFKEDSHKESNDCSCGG
Experiment: as above

First: AEQDCYHGAIP [FER_Y461_W460C]
Second: ENQEIYQKAFD [KPNA1_Y493]
The phosphorylation enrichment of the first is higher: 0.655 for the first, 0.576 for the second.

First: QGIFGYHHHMQ [UFSP2_Y287_Y290H_YF]
Second: RSFPSYFTSHV [NEFL_Y442_YF]
The phosphorylation enrichment of the first is higher: 0.781 for the first, 0.761 for the second.

Going from CEDMEYLESKQ [BTK_Y511_A508D] to LSERGYSFVTT [ACTA2_Y200_T196S], the phosphorylation enrichment falls from 0.783 to 0.704.

Compared with QHVPDYRQNVY [PCDHGA1_Y890], ISRDVYSTDYY [NTRK2_Y702_M697I] is higher in phosphorylation enrichment: 0.563 for the first, 2.51 for the second.

Compared with IRSGIYFKPES [L2HGDH_Y102_H98R_YF], VHNLDYYKETT [FGFR3_Y647_K650E] is lower in phosphorylation enrichment: 0.687 for the first, 0.497 for the second.

First: EQMASYFGHSV [ITGA2B_Y319]
Second: DGDTRYSTFSE [TKTL1_Y318]
The phosphorylation enrichment of the first is higher: 0.488 for the first, 0.487 for the second.

Compared with VMICAYLLHRG [PTEN_Y138], TGSFTCEAVEL [MTMR14_Y462_Y462C] is higher in phosphorylation enrichment: 0.63 for the first, 0.659 for the second.

Going from NPETCYQRLKK [TK2_Y190] to KILTHYKQPHT [KMT2D_Y5349_R5351Q], the phosphorylation enrichment falls from 0.603 to 0.403.

Target: FGFR3 (UniProt P22607)
Sequence (P22607 whole entry, looked up): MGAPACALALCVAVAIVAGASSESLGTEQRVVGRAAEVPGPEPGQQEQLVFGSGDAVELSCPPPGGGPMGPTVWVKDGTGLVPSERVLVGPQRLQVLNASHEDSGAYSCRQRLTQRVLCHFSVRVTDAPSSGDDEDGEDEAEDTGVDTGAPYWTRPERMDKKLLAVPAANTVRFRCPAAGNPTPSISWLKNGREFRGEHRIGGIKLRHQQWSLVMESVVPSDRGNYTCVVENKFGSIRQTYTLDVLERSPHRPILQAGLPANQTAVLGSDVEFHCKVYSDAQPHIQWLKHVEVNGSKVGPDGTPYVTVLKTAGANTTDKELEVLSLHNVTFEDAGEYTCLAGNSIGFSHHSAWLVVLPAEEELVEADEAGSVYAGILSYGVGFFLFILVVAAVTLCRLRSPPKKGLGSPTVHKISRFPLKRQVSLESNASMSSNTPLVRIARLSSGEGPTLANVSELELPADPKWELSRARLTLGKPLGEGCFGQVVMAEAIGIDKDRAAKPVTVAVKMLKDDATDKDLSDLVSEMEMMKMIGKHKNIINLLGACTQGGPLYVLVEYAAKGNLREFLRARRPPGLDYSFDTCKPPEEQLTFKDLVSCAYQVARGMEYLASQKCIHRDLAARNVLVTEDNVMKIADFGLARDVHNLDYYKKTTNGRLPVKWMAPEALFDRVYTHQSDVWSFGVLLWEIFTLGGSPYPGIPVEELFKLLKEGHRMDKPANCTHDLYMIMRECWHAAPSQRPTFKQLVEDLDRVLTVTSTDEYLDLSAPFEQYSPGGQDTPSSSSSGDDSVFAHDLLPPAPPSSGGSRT
Experiment: as above

Compared with AEQDCYHGAIP [FER_Y461_W460C], ENQEIYQKAFD [KPNA1_Y493] is higher in phosphorylation enrichment: 0.599 for the first, 0.643 for the second.

Going from QGIFGYHHHMQ [UFSP2_Y287_Y290H_YF] to RSFPSYFTSHV [NEFL_Y442_YF], the phosphorylation enrichment falls from 0.792 to 0.634.

Compared with CEDMEYLESKQ [BTK_Y511_A508D], LSERGYSFVTT [ACTA2_Y200_T196S] is higher in phosphorylation enrichment: 0.734 for the first, 1.46 for the second.

First: QHVPDYRQNVY [PCDHGA1_Y890]
Second: ISRDVYSTDYY [NTRK2_Y702_M697I]
The phosphorylation enrichment of the first is lower: 0.626 for the first, 3.13 for the second.

First: IRSGIYFKPES [L2HGDH_Y102_H98R_YF]
Second: VHNLDYYKETT [FGFR3_Y647_K650E]
The phosphorylation enrichment of the first is lower: 0.625 for the first, 0.769 for the second.

Compared with EQMASYFGHSV [ITGA2B_Y319], DGDTRYSTFSE [TKTL1_Y318] is higher in phosphorylation enrichment: 0.59 for the first, 0.669 for the second.

Compared with VMICAYLLHRG [PTEN_Y138], TGSFTCEAVEL [MTMR14_Y462_Y462C] is higher in phosphorylation enrichment: 0.778 for the first, 0.811 for the second.

Compared with NPETCYQRLKK [TK2_Y190], KILTHYKQPHT [KMT2D_Y5349_R5351Q] is lower in phosphorylation enrichment: 0.545 for the first, 0.412 for the second.

Target: Fes (UniProt P07332)
Sequence (P07332 whole entry, looked up): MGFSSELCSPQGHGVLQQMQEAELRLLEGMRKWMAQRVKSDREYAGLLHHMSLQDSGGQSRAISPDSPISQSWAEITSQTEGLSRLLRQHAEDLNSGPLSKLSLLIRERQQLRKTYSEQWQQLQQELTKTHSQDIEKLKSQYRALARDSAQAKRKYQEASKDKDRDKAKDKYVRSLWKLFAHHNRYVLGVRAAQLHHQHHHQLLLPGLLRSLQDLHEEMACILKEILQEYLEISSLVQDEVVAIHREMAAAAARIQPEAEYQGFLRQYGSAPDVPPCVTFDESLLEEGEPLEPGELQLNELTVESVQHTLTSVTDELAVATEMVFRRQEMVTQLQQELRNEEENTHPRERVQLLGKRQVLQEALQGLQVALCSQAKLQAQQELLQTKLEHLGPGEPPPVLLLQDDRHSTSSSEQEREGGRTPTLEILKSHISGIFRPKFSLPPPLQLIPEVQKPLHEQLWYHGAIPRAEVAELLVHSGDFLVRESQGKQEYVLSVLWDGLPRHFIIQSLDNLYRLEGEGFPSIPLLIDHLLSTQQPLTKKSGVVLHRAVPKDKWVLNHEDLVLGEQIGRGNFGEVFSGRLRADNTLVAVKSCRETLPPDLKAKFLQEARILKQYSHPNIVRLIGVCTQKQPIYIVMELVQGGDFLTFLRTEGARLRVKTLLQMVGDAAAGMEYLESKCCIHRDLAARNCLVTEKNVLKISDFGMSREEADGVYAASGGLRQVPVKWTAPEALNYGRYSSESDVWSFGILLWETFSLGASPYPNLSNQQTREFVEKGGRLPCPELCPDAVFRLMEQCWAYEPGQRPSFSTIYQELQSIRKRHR
Experiment: as above

Going from AEQDCYHGAIP [FER_Y461_W460C] to ENQEIYQKAFD [KPNA1_Y493], the phosphorylation enrichment rises from 1.01 to 1.15.

Compared with QGIFGYHHHMQ [UFSP2_Y287_Y290H_YF], RSFPSYFTSHV [NEFL_Y442_YF] is lower in phosphorylation enrichment: 1.04 for the first, 0.887 for the second.

Compared with CEDMEYLESKQ [BTK_Y511_A508D], LSERGYSFVTT [ACTA2_Y200_T196S] is higher in phosphorylation enrichment: 1.35 for the first, 1.41 for the second.

First: QHVPDYRQNVY [PCDHGA1_Y890]
Second: ISRDVYSTDYY [NTRK2_Y702_M697I]
The phosphorylation enrichment of the first is lower: 0.829 for the first, 1.04 for the second.

Compared with IRSGIYFKPES [L2HGDH_Y102_H98R_YF], VHNLDYYKETT [FGFR3_Y647_K650E] is lower in phosphorylation enrichment: 0.95 for the first, 0.824 for the second.

First: EQMASYFGHSV [ITGA2B_Y319]
Second: DGDTRYSTFSE [TKTL1_Y318]
The phosphorylation enrichment of the first is lower: 0.663 for the first, 0.879 for the second.

Going from VMICAYLLHRG [PTEN_Y138] to TGSFTCEAVEL [MTMR14_Y462_Y462C], the phosphorylation enrichment falls from 1.68 to 1.24.

First: NPETCYQRLKK [TK2_Y190]
Second: KILTHYKQPHT [KMT2D_Y5349_R5351Q]
The phosphorylation enrichment of the first is higher: 1.03 for the first, 0.565 for the second.

System: c-Abl (mouse)
Experiment: as above

First: AEQDCYHGAIP [FER_Y461_W460C]
Second: ENQEIYQKAFD [KPNA1_Y493]
The phosphorylation enrichment of the first is lower: 0.706 for the first, 1.03 for the second.

First: QGIFGYHHHMQ [UFSP2_Y287_Y290H_YF]
Second: RSFPSYFTSHV [NEFL_Y442_YF]
The phosphorylation enrichment of the first is lower: 0.652 for the first, 0.772 for the second.

First: CEDMEYLESKQ [BTK_Y511_A508D]
Second: LSERGYSFVTT [ACTA2_Y200_T196S]
The phosphorylation enrichment of the first is lower: 0.828 for the first, 0.925 for the second.

First: QHVPDYRQNVY [PCDHGA1_Y890]
Second: ISRDVYSTDYY [NTRK2_Y702_M697I]
The phosphorylation enrichment of the first is lower: 0.66 for the first, 0.69 for the second.

Going from IRSGIYFKPES [L2HGDH_Y102_H98R_YF] to VHNLDYYKETT [FGFR3_Y647_K650E], the phosphorylation enrichment falls from 2.88 to 0.577.

Going from EQMASYFGHSV [ITGA2B_Y319] to DGDTRYSTFSE [TKTL1_Y318], the phosphorylation enrichment rises from 0.573 to 0.764.

First: VMICAYLLHRG [PTEN_Y138]
Second: TGSFTCEAVEL [MTMR14_Y462_Y462C]
The phosphorylation enrichment of the first is higher: 1.27 for the first, 0.77 for the second.

First: NPETCYQRLKK [TK2_Y190]
Second: KILTHYKQPHT [KMT2D_Y5349_R5351Q]
The phosphorylation enrichment of the first is lower: 0.839 for the first, 1.18 for the second.

Target: FGFR1 (UniProt P11362)
Sequence (P11362 whole entry, looked up): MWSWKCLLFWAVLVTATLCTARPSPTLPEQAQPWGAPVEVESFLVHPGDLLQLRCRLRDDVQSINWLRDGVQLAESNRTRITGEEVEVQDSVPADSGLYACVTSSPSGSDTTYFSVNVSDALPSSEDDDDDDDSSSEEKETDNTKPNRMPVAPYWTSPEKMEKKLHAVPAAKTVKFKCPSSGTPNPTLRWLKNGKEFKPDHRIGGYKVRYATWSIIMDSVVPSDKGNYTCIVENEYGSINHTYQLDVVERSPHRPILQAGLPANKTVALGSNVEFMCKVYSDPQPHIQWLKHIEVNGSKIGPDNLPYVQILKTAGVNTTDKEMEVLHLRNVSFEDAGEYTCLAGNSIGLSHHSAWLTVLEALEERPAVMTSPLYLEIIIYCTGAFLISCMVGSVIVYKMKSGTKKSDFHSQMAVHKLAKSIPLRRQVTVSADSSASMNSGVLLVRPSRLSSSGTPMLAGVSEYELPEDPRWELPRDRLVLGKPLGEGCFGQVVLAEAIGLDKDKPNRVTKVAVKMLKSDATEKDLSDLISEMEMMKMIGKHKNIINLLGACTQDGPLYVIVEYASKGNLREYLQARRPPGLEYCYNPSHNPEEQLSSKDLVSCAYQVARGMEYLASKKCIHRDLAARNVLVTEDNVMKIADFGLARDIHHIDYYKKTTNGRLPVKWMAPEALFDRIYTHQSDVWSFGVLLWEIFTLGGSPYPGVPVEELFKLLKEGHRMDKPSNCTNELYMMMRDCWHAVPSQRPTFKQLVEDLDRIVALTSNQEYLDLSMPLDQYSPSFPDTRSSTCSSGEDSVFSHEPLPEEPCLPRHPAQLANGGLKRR
Experiment: as above

First: AEQDCYHGAIP [FER_Y461_W460C]
Second: ENQEIYQKAFD [KPNA1_Y493]
The phosphorylation enrichment of the first is higher: 0.523 for the first, 0.522 for the second.

Going from QGIFGYHHHMQ [UFSP2_Y287_Y290H_YF] to RSFPSYFTSHV [NEFL_Y442_YF], the phosphorylation enrichment rises from 0.892 to 0.899.

First: CEDMEYLESKQ [BTK_Y511_A508D]
Second: LSERGYSFVTT [ACTA2_Y200_T196S]
The phosphorylation enrichment of the first is lower: 0.476 for the first, 0.955 for the second.

Going from QHVPDYRQNVY [PCDHGA1_Y890] to ISRDVYSTDYY [NTRK2_Y702_M697I], the phosphorylation enrichment rises from 0.497 to 4.9.

Compared with IRSGIYFKPES [L2HGDH_Y102_H98R_YF], VHNLDYYKETT [FGFR3_Y647_K650E] is higher in phosphorylation enrichment: 0.542 for the first, 0.789 for the second.

First: EQMASYFGHSV [ITGA2B_Y319]
Second: DGDTRYSTFSE [TKTL1_Y318]
The phosphorylation enrichment of the first is higher: 0.576 for the first, 0.41 for the second.

Compared with VMICAYLLHRG [PTEN_Y138], TGSFTCEAVEL [MTMR14_Y462_Y462C] is lower in phosphorylation enrichment: 0.642 for the first, 0.529 for the second.

First: NPETCYQRLKK [TK2_Y190]
Second: KILTHYKQPHT [KMT2D_Y5349_R5351Q]
The phosphorylation enrichment of the first is higher: 0.481 for the first, 0.437 for the second.
